Key:
recombinant human IL-1β [1] = target: T1, recombinant human IL-1β (human, UniProt P01584 117-269); assay: BIAcore SPR; AAL160 immobilised, recombinant IL-1β 0.5 to 12 nM, 1:1 model, n = 15
T1 construct: mature; it is entered under this molecule; also called human interleukin 1 beta; huIL-1β
Method: Data analysis is performed using the BIAevaluation software.

recombinant human IL-1β [2] = target: T1, recombinant human IL-1β; assay: cell-based or functional assay
Human IL-1Ra [3] = target: T2, Human IL-1Ra (human, UniProt P18510 26-177); assay: Biacore; AAL160 immobilised, cytokine at 8 nM (or 20 nM in the case of IL-1β)
T2 construct: also called IL-1 receptor antagonist

Cynomolgus IL-1β = target: T3, Cynomolgus IL-1β (cynomolgus monkey, UniProt P79182 117-268); assay: as above
T3 construct: also called cynomolgus monkey IL-1β
T3 sequence (looked up): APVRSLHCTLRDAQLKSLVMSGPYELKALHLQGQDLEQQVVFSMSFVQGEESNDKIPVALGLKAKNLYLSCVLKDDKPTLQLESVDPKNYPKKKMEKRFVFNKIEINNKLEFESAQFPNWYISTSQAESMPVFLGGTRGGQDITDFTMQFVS

recombinant human IL-1β [4] = target: T1, recombinant human IL-1β; assay: as above
Human IL-1α [5] = target: T4, Human IL-1α (human, UniProt P01583 113-271); assay: as above
T4 sequence (looked up): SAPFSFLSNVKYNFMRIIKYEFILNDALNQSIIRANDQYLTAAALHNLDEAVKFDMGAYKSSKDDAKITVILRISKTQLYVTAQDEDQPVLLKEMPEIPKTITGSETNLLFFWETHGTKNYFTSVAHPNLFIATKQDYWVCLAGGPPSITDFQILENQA

Mouse IL-1β [6] = target: T5, Mouse IL-1β (mouse, UniProt P10749 118-269); assay: as above
T5 construct: also called murine IL-1β
T5 sequence (looked up): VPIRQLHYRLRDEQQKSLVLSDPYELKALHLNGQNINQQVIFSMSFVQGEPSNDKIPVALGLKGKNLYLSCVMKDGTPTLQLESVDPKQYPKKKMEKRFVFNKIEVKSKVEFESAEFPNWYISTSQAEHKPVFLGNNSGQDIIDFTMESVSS

Rat IL-1β [7] = target: T6, Rat IL-1β (rat, UniProt Q63264 117-268); assay: as above
T6 sequence (looked up): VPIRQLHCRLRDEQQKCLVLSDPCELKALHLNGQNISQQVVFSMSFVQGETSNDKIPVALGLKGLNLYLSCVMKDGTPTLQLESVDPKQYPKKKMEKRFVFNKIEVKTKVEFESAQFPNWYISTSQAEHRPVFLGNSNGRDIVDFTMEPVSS

Human IL-1Ra [8] = target: T2, Human IL-1Ra; assay: Biacore, AAL160 immobilised
Human IL-1α [9] = target: T4, Human IL-1α; assay: Biacore, AAL160 immobilised
Mouse IL-1β [10] = target: T5, Mouse IL-1β; assay: Biacore, AAL160 immobilised
Rat IL-1β [11] = target: T6, Rat IL-1β; assay: Biacore, AAL160 immobilised
recombinant human IL-1β [12] = target: T1, recombinant human IL-1β; assay: Biacore competition: AAL160 immobilised on the chip, recombinant human IL-1β (8 nM) injected with increasing concentrations of soluble receptor type I; readout is % binding of IL-1β to AAL160 (competitor: AAL160)

T2 sequence (P18510 26-177 limits assumed): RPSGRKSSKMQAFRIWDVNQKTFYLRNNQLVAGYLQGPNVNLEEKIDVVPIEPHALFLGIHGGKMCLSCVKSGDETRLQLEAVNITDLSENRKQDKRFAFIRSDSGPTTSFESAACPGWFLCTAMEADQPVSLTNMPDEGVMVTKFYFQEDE

B1: AAL160 antibody (human IgG1/κ monoclonal antibody to human IL-1β) (antibody, V domains shown)
VH: EVQLVQSGAEVKKPGESLKISCKGSGYSFTSYWIGWVRQMPGKGLEWMGIIYPSDSDTRYSPSFQGQVTISADKSISTAYLQWSSLKASDTAMYYCARYTNWDAFDIWGQGTMVTVSS
VL: EIVLTQSPATLSLSPGERATLSCRASQSVSSYLAWYQQKPGQAPRLLIYDASNRATGIPARFSGSGSGTDFTLTISSLEPEDFAVYYCQQRSNWMFPFGQGTKLEIK
notes: It was purified from hybridoma supernatant on protein A; also called NVP AAL 160 NX-1; hybridoma # 476
Recombinant human IL-1β [1]
  Kd: 0.397 nM
  koff: 0.000153 s⁻¹
  kon: 391000 M⁻¹ s⁻¹
Recombinant human IL-1β [2]
  IC50, IL-6 secretion, Recombinant (primary human dermal fibroblasts stimulated with recombinant IL-1β): 0.34 nM
  IC50, IL-6 secretion, cond. Medium (primary human dermal fibroblasts stimulated with conditioned medium of LPS-stimulated human PBMCs, natural IL-1β): 0.6 nM
  IC50, PGE2 production, cond. Medium (primary human dermal fibroblasts stimulated with conditioned medium of LPS-stimulated human PBMCs, natural IL-1β): 0.79 nM
Human IL-1Ra [3]
  Percent of total binding: 1.2%
Cynomolgus IL-1β
  Percent of total binding: 96.4%
Recombinant human IL-1β [4]
  Percent of total binding: 100%
Human IL-1α [5]
  Percent of total binding: 0.7%
Mouse IL-1β [6]
  Percent of total binding: 2.8%
Rat IL-1β [7]
  Percent of total binding: 3%
Human IL-1Ra [8]
  binding result: no binding (tested: 8 nM (or 20 nM in the case of IL-1β))
Human IL-1α [9]
  binding result: no binding (tested: 8 nM (or 20 nM in the case of IL-1β))
Mouse IL-1β [10]
  binding result: no binding (tested: 8 nM (or 20 nM in the case of IL-1β))
Rat IL-1β [11]
  binding result: no binding (tested: 8 nM (or 20 nM in the case of IL-1β))

B2: recombinant human soluble IL-1 receptor type I (receptor, UniProt P14778 18-332, looked up)
chain: LEADKCKEREEKIILVSSANEIDVRPCPLNPNEHKGTITWYKDDSKTPVSTEQASRIHQHKEKLWFVPAKVEDSGHYYCVVRNSSYCLRIKISAKFVENEPNLCYNAQAIFKQKLPVAGDGGLVCPYMEFFKNENNELPKLQWYKDCKPLLLDNIHFSGVKDRLIVMNVAEKHRGNYTCHASYTYLGKQYPITRVIEFITLEENKPTRPVIVSPANETMEVDLGSQIQLICNVTGQLSDIAYWKWNGSVIDEDDPVLGEDYYSVENPANKRRSTLITVLNISEIESRFYKHPFTCFAKNTHGIDAAYIQLIYPVT
notes: soluble; also called soluble IL-1 type I receptor; receptor I
Recombinant human IL-1β [12]
  IC50: 3.4 nM
